Assay results published in article PMC4735607, “Reversal of axonal growth defects in an extraocular fibrosis model by engineering the kinesin–microtubule interface” (Nature Communications, 2016).

Key:
Settings in all cases: both partners purified
[1] = biological target: T1, WT microtubules of recombinant human TUBA1B (K40R, treated as WT) and TUBB3 tubulin (human, UniProt P68363-1 1-451; Q13509-1 1-450, K40R); experiment: co-sedimentation; AMPPNP state: 0.1 µM BG-549-labelled HK349 with varying concentrations of MTs; x2 MA buffer, 1 mg/ml casein, 40 µM taxol, 1 mM AMPPNP and 1 U/ml apyrase; fraction of HK349 in the MT pellet against total MT concentration fitted to a hyperbola
T1 construct: beta3-tubulin TUBB3, Homo sapiens, NP_006077; Polymer of alpha/beta heterodimers, taxol-stabilised; Each tag is joined through a GGSGG linker; also called WT MT; WT MTs; source: HighFive insect cells (baculovirus), purified (DEAE Sepharose, TALON, anti-FLAG resin), polymerized with taxol

[2] = biological target: T2, beta-R262A microtubules of recombinant human TUBA1B (K40R) and TUBB3 R262A tubulin (human, UniProt P68363-1 1-451; Q13509-1 1-450, K40R | R262A); experiment: as above
T2 construct: beta3-tubulin TUBB3, Homo sapiens, NP_006077, with R262A; Polymer of alpha/beta heterodimers, taxol-stabilised; Each tag is joined through a GGSGG linker; also called β-R262A; R262A MT; source: HighFive insect cells (baculovirus), purified (DEAE Sepharose, TALON, anti-FLAG resin), polymerized with taxol

[3] = biological target: T1, WT microtubules of recombinant human …; experiment: co-sedimentation; ADP state: 0.1 µM BG-549-labelled HK349 with varying concentrations of MTs; x2 MA buffer, 1 mg/ml casein, 40 µM taxol, 1 mM ADP and 1 U/ml hexokinase; fraction of HK349 in the MT pellet against total MT concentration fitted to a hyperbola
[4] = biological target: T2, beta-R262A microtubules of recombinant …; experiment: as above
[5] = biological target: T1, WT microtubules of recombinant human …; experiment: co-sedimentation; nucleotide-free state: 0.1 µM BG-549-labelled HK349 with varying concentrations of MTs; x2 MA buffer, 1 mg/ml casein, 40 µM taxol, 1 U/ml apyrase; fraction of HK349 in the MT pellet against total MT concentration fitted to a hyperbola
[6] = biological target: T2, beta-R262A microtubules of recombinant …; experiment: as above

T1 sequence (P68363 whole entry K40R, chain 1 of 2): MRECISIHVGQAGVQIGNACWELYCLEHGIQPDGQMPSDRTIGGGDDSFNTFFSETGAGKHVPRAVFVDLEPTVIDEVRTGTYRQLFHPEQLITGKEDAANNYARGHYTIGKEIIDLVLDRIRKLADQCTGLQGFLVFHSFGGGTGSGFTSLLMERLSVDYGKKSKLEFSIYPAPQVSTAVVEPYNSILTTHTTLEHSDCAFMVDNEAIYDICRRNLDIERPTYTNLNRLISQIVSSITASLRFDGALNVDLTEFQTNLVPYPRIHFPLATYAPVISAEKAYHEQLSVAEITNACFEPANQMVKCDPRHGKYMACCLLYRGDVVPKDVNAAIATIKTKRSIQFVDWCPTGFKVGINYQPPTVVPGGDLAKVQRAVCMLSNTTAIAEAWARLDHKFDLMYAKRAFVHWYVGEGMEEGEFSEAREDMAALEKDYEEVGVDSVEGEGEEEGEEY
T1 sequence (Q13509 whole entry, chain 2 of 2): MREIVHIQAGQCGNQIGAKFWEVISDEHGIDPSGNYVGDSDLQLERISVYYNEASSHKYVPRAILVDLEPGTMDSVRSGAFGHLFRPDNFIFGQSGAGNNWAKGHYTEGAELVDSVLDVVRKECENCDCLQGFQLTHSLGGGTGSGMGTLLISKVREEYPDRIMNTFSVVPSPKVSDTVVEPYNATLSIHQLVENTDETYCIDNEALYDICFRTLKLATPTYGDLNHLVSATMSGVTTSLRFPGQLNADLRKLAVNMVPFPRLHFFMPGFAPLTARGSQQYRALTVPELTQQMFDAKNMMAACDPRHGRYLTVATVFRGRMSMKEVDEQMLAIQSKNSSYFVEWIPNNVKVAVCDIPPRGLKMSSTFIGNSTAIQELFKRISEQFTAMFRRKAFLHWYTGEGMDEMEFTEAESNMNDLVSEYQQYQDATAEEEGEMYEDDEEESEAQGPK
T2 sequence (P68363 whole entry K40R, chain 1 of 2): as the sequence (P68363 whole entry K40R, chain 1 of 2) above
T2 sequence (Q13509 whole entry R262A, chain 2 of 2): as the sequence (Q13509 whole entry, chain 2 of 2) above, with R262A counted along it

Binder | Kd [1] [nM] | Kd [2] [nM] | Kd [3] [nM] | Kd [4] [nM] | Kd [5] [nM] | Kd [6] [nM]
WT KIF5B, single-headed (monomeric) construct HK349 (K349-SNAP-His) (domain or fragment, human, UniProt P33176 1-349, looked up, fluorescent dye BG-549 (SNAP-surface 549) on the SNAP tag, kinesin heavy chain KIF5B, human, residues 1-349; also called minimal motor; not shown: SNAP tag, C-terminal, kept) MADLAECNIKVMCRFRPLNESEVNRGDKYIAKFQGEDTVVIASKPYAFDRVFQSSTSQEQVYNDCAKKIVKDVLEGYNGTIFAYGQTSSGKTHTMEGKLHDPEGMGIIPRIVQDIFNYIYSMDENLEFHIKVSYFEIYLDKIRDLLDVSKTNLSVHEDKNRVPYVKGCTERFVCSPDEVMDTIDEGKSNRHVAVTNMNEHSSRSHSIFLINVKQENTQTEQKLSGKLYLVDLAGSEKVSKTGAEGAVLDEAKNINKSLSALGNVISALAEGSTYVPYRDSKMTRILQDSLGGNCRTTIVICCSPSSYNESETKSTLLFGQRAKTIKNTVCVNVELTAEQWKKKYEKEKE | 29 | 2500 | 6500 | 36000 | 12 | 860
D279R KIF5B, single-headed (monomeric) construct HK349 (domain or fragment, human, UniProt P33176 1-349, looked up, fluorescent dye BG-549 (SNAP-surface 549) on the SNAP tag, kinesin heavy chain KIF5B, human, residues 1-349, with D279R in the L12 loop; also called HK349 D279R; not shown: SNAP tag, C-terminal, kept) MADLAECNIKVMCRFRPLNESEVNRGDKYIAKFQGEDTVVIASKPYAFDRVFQSSTSQEQVYNDCAKKIVKDVLEGYNGTIFAYGQTSSGKTHTMEGKLHDPEGMGIIPRIVQDIFNYIYSMDENLEFHIKVSYFEIYLDKIRDLLDVSKTNLSVHEDKNRVPYVKGCTERFVCSPDEVMDTIDEGKSNRHVAVTNMNEHSSRSHSIFLINVKQENTQTEQKLSGKLYLVDLAGSEKVSKTGAEGAVLDEAKNINKSLSALGNVISALAEGSTYVPYRRSKMTRILQDSLGGNCRTTIVICCSPSSYNESETKSTLLFGQRAKTIKNTVCVNVELTAEQWKKKYEKEKE | 10 | 50 | 12000 | 14000 | 12 | 120
